System: cysteine protease
Test: Cysteine protease activity of purified human CAP18
Format: biochemical

B1: human CAP18: human form of CAP18, amino acid sequence SEQ ID NO:2 (protein)
chain: MKTQRDGHSLGRWSLVLLLLGLVMPLAIIAQVLSYKEAVLRAIDGINQRSSDANLYRLLDLDPRPTMDGDPDTPKPVSFTVKETVCPRTTQQSPEDCDFKKDGLVKRCMGTVTLNQARGSFDISCDKDNKRFALLGDFFRKSKEKIGKEFKRIVQRIKDFLRNLVPRTES
  cysteine protease activity (in words): significant cysteine protease activity
